Our source for the binding values is publication PMC3985669.

Data set [1] deals with Hfq (UniProt P0A6X3). Put plainly: EMSA. Background: In EMSA bound probe runs differently from free probe, usually more slowly.
Data set [2] concerns the target Hfq (UniProt P0A6X3). Put plainly: footprinting.

Hfq, sequence (P0A6X3 2-102): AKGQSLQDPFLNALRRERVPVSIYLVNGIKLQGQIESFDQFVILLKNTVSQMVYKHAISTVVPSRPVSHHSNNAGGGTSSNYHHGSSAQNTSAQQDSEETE

“GGAUGUAAUCCAUUAGUUUUAUAUUUUACCCAUUUAGGGCUGAUUUAUUACUACACACAGCAGUGCAACAUCUGUCAGUACUUCUGGUGCUUCUAUUUUAGAGGCAGCUGUCAGGUGUGCGAUCAAUAAAAAAAGCGGGGUUUCAUCAUGUUUAAUGAAGUCCAUAGUAUUCAUGGUCAUACAUUAUUGUUGAUCACUAAAUCUUCUUUGCAGGCG [RydC + csgD mRNA215 duplex]”: in the data set with Hfq [1], the binding result was “binds”.
Consider “GGAUGUAAUCCAUUAGUUUUAUAUUUUACCCAUUUAGGGCUGAUUUAUUACUACACACAGCAGUGCAACAUCUGUCAGUACUUCUGGUGCUUCUAUUUUAGAGGCAGCUGUCAGGUGUGCGAUCAAUAAAAAAAGCGGGGUUUCAUCAUGUUUAAUGAAGUCCAUAGUAUUCAUGGUCAUACAUUAUUGUUGAUCACUAAAUCUUCUUUGCAGGCG [csgD mRNA215]”, for which the binding result in the data set with Hfq [2] and with Hfq [1] was “binds” each time.
